The record followed here is patent US20020103133.

Series [1] deals with acetyl-P-L-G-Hof-Orn-L-Dox.
In series [2] the test system is succinyl-P-L-G-Hof-Y-L-Dox.

Consider MMP-9, for which the kcat/Km (cleavage of conjugate, HPLC) in the series on acetyl-G-P-L-G-L-A-L-Dox came to 1.9e+07 M⁻¹ s⁻¹; in the series with acetyl-G-P-L-G-L-L-Dox, 9.5e+07 M⁻¹ s⁻¹; in the series on acetyl-G-P-L-G-L-Y-Dox, 1.1e+08 M⁻¹ s⁻¹; in series [1], 2.6e+07 M⁻¹ s⁻¹; in the series with acetyl-P-L-G-Hof-Y-L-Dox, 3.4e+07 M⁻¹ s⁻¹; with acetyl-P-L-G-L-A-A-L-Dox it was 1.65e+08 M⁻¹ s⁻¹. The kcat/Km (cleavage of conjugate, HPLC) in the series on acetyl-P-L-G-L-A-L-Dox worked out at 2.4e+07 M⁻¹ s⁻¹; in the series on acetyl-P-L-G-L-L-A-L-Dox, 1.3e+08 M⁻¹ s⁻¹; in the series on acetyl-P-L-G-L-L-Dox it was 1.3e+08 M⁻¹ s⁻¹; with acetyl-P-L-G-L-L-S-L-Dox, 1.49e+08 M⁻¹ s⁻¹; with acetyl-P-L-G-L-Y-A-L-Dox, 2.96e+08 M⁻¹ s⁻¹; in the series on acetyl-P-L-G-L-Y-L-Dox it was 3.9e+08 M⁻¹ s⁻¹. The kcat/Km (cleavage of conjugate, HPLC) in [2] was greater than 1.2e+08 M⁻¹ s⁻¹.
